{
  "source": "paper PMC7705432",
  "about": "(Cell Research, 2020)",
  "binders": {"B1": {"name": "H014 Fab (Fab, V domains shown)", "VH": "VQLVQSGAEVKKPGATVKISCKVSGYSFSNYYIHWVKQAPGKSLEWIGYIDPFNGGTSDNLKFKGAATLTADTSTDTAYMELSSLRSEDTAVYYCARSEYDPYYVMDYWGQGTTVTVSS", "VL": "IVLTQSPFQSVSPKEKVTITCRASQSISSNLHWYQQKPDQSPKLLIKYASQSISGIPSRFSGSGSGTDFTLTINSLEAEDFGIYFCQQTNFWPYIFGQGTKLEIL"}, "B2": {"name": "P17 Fab (Fab, V domains shown)", "VH": "QQLVESGGGVVQPGRSLRLSCAASGFTFSSYAMHWVRQAPGKGLEWVAVISYDGSNKYYADSVKGRFTISRDNSKNTLYLQMNSLRAEDTAVYYCARHATLMNNKDIWGQGTLVTVSS", "VL": "not shown", "notes": "also called P17 Fabs"}},
  "molecular_target": "T1, SARS-CoV-2 S trimer (SARS-CoV-2, Wuhan-Hu-1 (GenBank …, stabilised))",
  "T1 construct": "also called Spike (S) protein",
  "test": "cryo-EM structure",
  "conditions": "both partners purified",
  "data": [
    {"binder": "B1", "values": [
      {"measurement": "stoichiometry N", "value": 3, "unit": "Fabs per S trimer"}
    ]},
    {"binder": "B2", "values": [
      {"measurement": "stoichiometry N", "value": 3, "unit": "Fabs per S trimer"}
    ]}
  ]
}
